Reference: patent US20260265381A1 (Hoffmann-La Roche, published 2026)

B1: HLA-G-0090 (antibody, IgG1, V domains shown)
VH: QVQLQQSGPGLLKPSQTLSLTCAISGDSVSSNRAAWNWIRQSPSRGLEWLGRTYYRSKWYNDYAVSVQGRITLIPDTSKNQFSLRLNSVTPEDTAVYYCASVRAVAPFDYWGQGVLVTVSS
VL: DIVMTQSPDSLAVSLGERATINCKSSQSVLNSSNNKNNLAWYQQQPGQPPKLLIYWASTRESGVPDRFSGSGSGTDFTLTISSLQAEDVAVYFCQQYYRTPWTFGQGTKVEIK
modifications: N-glycosylation motif NSS in CDR-L1 at light chain positions 31 to 33 (Fab glycosylation detected)
notes: the parental antibody was expressed alongside them; also called parental antibody
B2: HLA-G-0090-VL-S32P (antibody, IgG1, V domains shown)
VH: B1 VH
VL: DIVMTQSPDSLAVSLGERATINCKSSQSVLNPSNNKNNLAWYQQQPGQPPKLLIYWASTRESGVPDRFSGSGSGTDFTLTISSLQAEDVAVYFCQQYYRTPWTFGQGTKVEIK
notes: also called HLA-G-0090-S32P
B3: HLA-G-0090-VL-S33A (antibody, IgG1, V domains shown)
VH: B1 VH
VL: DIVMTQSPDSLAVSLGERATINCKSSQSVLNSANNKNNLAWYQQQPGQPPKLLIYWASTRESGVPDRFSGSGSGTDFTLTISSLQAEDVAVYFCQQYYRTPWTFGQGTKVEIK
notes: also called HLA-G-0090-S33A
B4: HLA-G-0090-VL-S33D (antibody, IgG1, V domains shown)
VH: B1 VH
VL: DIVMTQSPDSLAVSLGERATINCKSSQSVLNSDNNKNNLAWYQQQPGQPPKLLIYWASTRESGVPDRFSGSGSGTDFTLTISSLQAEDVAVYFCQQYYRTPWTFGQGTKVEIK
notes: also called HLA-G-0090-S33D
B5: HLA-G-0090-VL-S33P (antibody, IgG1, V domains shown)
VH: B1 VH
VL: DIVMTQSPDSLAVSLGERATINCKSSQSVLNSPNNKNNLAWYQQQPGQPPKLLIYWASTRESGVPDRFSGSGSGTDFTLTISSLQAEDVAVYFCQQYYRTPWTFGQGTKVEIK
notes: also called HLA-G-0090-S33P
B6: P035-093 (P035) human IgG1 PGLALA (antibody, V domains shown)
VH: EVQLLESGGGLVQPGGSLRLSCAASGFTFSSYAMNWVRQAPGKGLEWVSRIRSKYNNYATYYADSVKGRFTISRDDSKNTLYLQMNSLRAEDTAVYYCVRASNFPASYVSYFAYWGQGTLVTVSS
VL: QAVVTQEPSLTVSPGGTVTLTCGSSTGAVTTSNYANWVQEKPGQAFRGLIGGTNKRAPGTPARFSGSLLGGKAALTLSGAQPEDEAEYYCALWYSNLWVFGGGTKLTVLR
B7: CD3orig human IgG1 PGLALA (antibody, V domains shown)
VH: not shown
VL: B6 VL
notes: Human IgG1 format with P329G L234A L235A mutations in the Fc region

Tests used:
[1] = target: T1, recombinant single-chain HLA-G monomer/human HLA-G β2M MHC class I complex (human); assay: SPR relative active concentration; Ref. (frozen at -80 C)
T1 construct: also called wt-HLA-G complex; wt-HLA-G antigen

[2] = target: T1, recombinant single-chain HLA-G …; assay: SPR relative active concentration; after 13 days His pH 6.0 at 40 C
[3] = target: T1, recombinant single-chain HLA-G …; assay: SPR relative active concentration; after 13 days PBS pH 7.4 at 37 C
[4] = target: T2, human HLA-G expressed on cells (JEG3 cells, natural; SKOV3 cells transfected with recombinant HLA-G) (human, UniProt P17693 25-338); assay: flow cytometry; JEG3 cells pre-incubated with antibody, competitor ILT2-c-Myc-Fc at 10 ug/ml
T2 construct: also called SKOV3 HLA-G

[5] = target: T3, rat RT1 (SEQ ID NO: 43) (rat); assay: SPR (Biacore T200, 25 C); antibody immobilized on CM3 chip, single-chain peptide-MHC as analyte
T3 construct: Recombinant single-chain peptide-MHC complex construct (peptide, β2M, MHC class I molecule); also called rat RT1A β2M MHC class I complex
T3 chain: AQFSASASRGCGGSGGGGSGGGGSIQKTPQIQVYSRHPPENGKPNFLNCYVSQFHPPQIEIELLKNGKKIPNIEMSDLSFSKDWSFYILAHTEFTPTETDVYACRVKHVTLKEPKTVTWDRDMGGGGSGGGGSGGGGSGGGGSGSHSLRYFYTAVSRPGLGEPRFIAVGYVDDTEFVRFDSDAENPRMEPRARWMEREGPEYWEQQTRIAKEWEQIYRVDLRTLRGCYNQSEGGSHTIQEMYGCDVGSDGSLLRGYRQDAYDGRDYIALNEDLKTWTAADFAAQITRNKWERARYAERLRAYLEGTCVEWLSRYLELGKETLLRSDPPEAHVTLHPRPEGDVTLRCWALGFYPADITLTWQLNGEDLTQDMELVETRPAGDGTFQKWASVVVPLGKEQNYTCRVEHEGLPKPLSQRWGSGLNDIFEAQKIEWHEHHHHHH

[6] = target: T4, human HLA-G β2M MHC class I complex, wherein the HLA-G specific amino acids have been replaced by HLA-A … (human); assay: as above
T4 construct: Recombinant single-chain peptide-MHC complex construct; also called HLA-A consensus on HLA-G frame; degrafted HLA-G

[7] = target: T1, recombinant single-chain HLA-G …; assay: SPR multi cycle kinetics (Biacore T200, 25 C); antibody captured via Fc on CM3 chip, HLA-G complex as analyte
[8] = target: T1, recombinant single-chain HLA-G …; assay: SPR single cycle kinetics (Biacore T200, 25 C); antibody captured via Fc on CM3 chip, HLA-G complex as analyte
[9] = target: T2, human HLA-G expressed on cells (JEG3 …); assay: flow cytometry on JEG3 cells (natural HLA-G); antibody at 2 µg/ml per legend paragraph 51 (10 µg/ml per paragraph 491); detection with goat anti-human IgG (H+L) Alexa 488
[10] = target: T2, human HLA-G expressed on cells (JEG3 …); assay: flow cytometry on SKOV3 HLA-G cells (SKOV3 transfected with HLA-G); antibody at 2 µg/ml per legend paragraph 51 (10 µg/ml per paragraph 491); detection with goat anti-human IgG (H+L) Alexa 488
[11] = target: T1, recombinant single-chain HLA-G …; assay: SPR multi cycle kinetics
[12] = target: T5, human CD3 expressed on cells (Jurkat NFAT reporter cells; human T cells isolated from PBMCs) (human, UniProt P07766 23-207); assay: flow cytometry on Jurkat NFAT cells; IgG1 PGLALA format; detection with PE anti-human IgG Fc F(ab')2
T5 construct: on cells it is part of the CD3/TCR complex; also called CD3 on Jurkat cells; CD3 expressed on T-cells
T5 sequence (P07766 23-207 limits assumed): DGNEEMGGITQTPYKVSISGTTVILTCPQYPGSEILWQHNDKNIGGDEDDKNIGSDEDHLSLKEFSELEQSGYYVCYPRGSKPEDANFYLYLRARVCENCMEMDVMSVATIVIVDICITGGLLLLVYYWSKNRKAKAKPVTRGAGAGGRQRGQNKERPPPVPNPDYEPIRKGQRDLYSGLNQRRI

| Binder | relative HLA-G binding signal compared to Ref (as 100%), by SPR RAC [1] [%] | relative HLA-G binding signal compared to Ref (as 100%), by SPR RAC [2] [%] | relative HLA-G binding signal compared to Ref (as 100%), by SPR RAC [3] [%] | inhibition of ILT2 binding to Jeg3 cells [4] [%] | binding result [5] | binding result [6] | Kd [7] [nM] | koff [7] [s⁻¹] | kon [7] [M⁻¹ s⁻¹] | t½ [7] [min] | Kd [8] [nM] | koff [8] [s⁻¹] | kon [8] [M⁻¹ s⁻¹] | t½ [8] [min] | MFI [9] | MFI [10] | factor of loss of binding affinity compared to HLA-G-0090 [11] [fold] | EC50 (read off the curve) [12] [nM] |
| --- | --- | --- | --- | --- | --- | --- | --- | --- | --- | --- | --- | --- | --- | --- | --- | --- | --- | --- |
| B1 | 100 | 99 | 96 | 72 | no binding | no binding | 1.4 | 0.00178 | 1.3e+06 | 6.5 | 1.2 | 0.00138 | 1.19e+06 | 8.35 | 6060 | 13100 | – | – |
| B2 | 100 | 99 | 98 | 72 | no binding | no binding | 1.2 | 0.00157 | 1.27e+06 | 7.34 | 1 | 0.00124 | 1.19e+06 | 9.29 | 6330 | 13900 | – | – |
| B3 | 100 | 99 | 96 | 72 | no binding | no binding | 1.2 | 0.00149 | 1.24e+06 | 7.76 | 1 | 0.00124 | 1.24e+06 | 9.3 | 6380 | 14300 | – | – |
| B4 | – | – | – | – | – | – | 7.4 | 0.00667 | 897000 | 1.73 | 4.8 | 0.00344 | 717000 | 3.36 | – | – | 5 | – |
| B5 | – | – | – | – | – | – | 2.7 | 0.00368 | 1.36e+06 | 3.13 | 1.8 | 0.00236 | 1.34e+06 | 4.91 | – | – | 2 | – |
| B6 | – | – | – | – | – | – | – | – | – | – | – | – | – | – | – | – | – | ~0.5 |
| B7 | – | – | – | – | – | – | – | – | – | – | – | – | – | – | – | – | – | ~0.8 |
